# Laboratory results as given in article PMC7667676.
# Target: endogenous phosphorylated p38 (P-p38) (human (endogenous in Huh7.5.1)) (UniProt Q16539)
# Chain of UniProt Q16539 (Q16539 whole entry): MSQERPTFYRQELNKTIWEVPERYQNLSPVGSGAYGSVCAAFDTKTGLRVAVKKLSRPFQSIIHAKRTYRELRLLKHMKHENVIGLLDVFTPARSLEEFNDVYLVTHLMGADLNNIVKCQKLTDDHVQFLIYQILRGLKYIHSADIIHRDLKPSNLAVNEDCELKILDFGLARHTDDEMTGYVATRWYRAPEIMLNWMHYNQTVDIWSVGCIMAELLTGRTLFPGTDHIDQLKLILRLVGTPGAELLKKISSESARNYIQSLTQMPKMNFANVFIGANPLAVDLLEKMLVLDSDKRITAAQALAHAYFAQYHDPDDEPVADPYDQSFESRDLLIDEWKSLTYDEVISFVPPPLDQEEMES
substance,measurement,value
HCV core protein N-terminal peptide (CN-peptide),reduction of intracellular HCV RNA (qRT-PCR) in JFH1-infected primary human hepatocytes incubated with the CN-peptide for 72 h; the pair blocked is p38α and the HCV core protein (m8 and m9),91%
